The values that follow come from patent publication US20260224670.

The series deals with T1, EB2 of mouse neurons and mouse brain, Q8R001.
T1 chain: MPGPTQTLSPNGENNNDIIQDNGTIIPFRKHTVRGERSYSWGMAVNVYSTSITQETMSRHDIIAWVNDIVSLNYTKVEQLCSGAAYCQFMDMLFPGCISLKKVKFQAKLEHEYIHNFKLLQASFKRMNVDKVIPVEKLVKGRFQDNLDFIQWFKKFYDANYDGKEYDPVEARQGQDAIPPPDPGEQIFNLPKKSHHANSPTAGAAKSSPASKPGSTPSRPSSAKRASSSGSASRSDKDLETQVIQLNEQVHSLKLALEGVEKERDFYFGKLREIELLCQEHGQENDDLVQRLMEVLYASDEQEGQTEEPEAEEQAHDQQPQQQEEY

B1: hICK, 3xFLAG-TwinStrep tagged (protein)
chain: MNRYTTIRQLGDGTYGSVLLGRSIESGELIAIKKMKRKFYSWEECMNLREVKSLKKLNHANVVKLKEVIRENDHLYFIFEYMKENLYQLIKERNKLFPESAIRNIMYQILQGLAFIHKHGFFHRDLKPENLLCMGPELVKIADFGLAREIRSKPPYTDYVSTRWYRAPEVLLRSTNYSSPIDVWAVGCIMAEVYTLRPLFPGASEIDTIFKICQVLGTPKKTDWPEGYQLSSAMNFRWPQCVPNNLKTLIPNASSEAVQLLRDMLQWDPKKRPTASQALRYPYFQVGHPLGSTTQNLQDSEKPQKGILEKAGPPPYIKPVPPAQPPAKPHTRISSRQHQASQPPLHLTYPYKAEVSRTDHPSHLQEDKPSPLLFPSLHNKHPQSKITAGLEHKNGEIKPKSRRRWGLISRSTKDSDDWADLDDLDFSPSLSRIDLKNKKRQSDDTLCRFESVLDLKPSEPVGTGNSAPTQTSYQRRDTPTLRSAAKQHYLKHSRYLPGISIRNGILSNPGKEFIPPNPWSSSGLSGKSSGTMSVISKVNSVGSSSTSSSGLTGNYVPSFLKKEIGSAMQRVHLAPIPDPSPGYSSLKAMRPHPGRPFFHTQPRSTPGLIPRPPAAQPVHGRTDWASKYASRR
With B1, the “phospho-Ser222 EB2 in transfected CDKL5 KO primary cortical neurons” value (from here on “phospho-Ser222 EB2”) is given as “pS222 EB2 is specifically increased in the neurons that express these kinases”.

B2: hCDKL2 (cyclin dependent kinase like 2), 3xFLAG-TwinStrep tagged (protein)
chain: MEKYENLGLVGEGSYGMVMKCRNKDTGRIVAIKKFLESDDDKMVKKIAMREIKLLKQLRHENLVNLLEVCKKKKRWYLVFEFVDHTILDDLELFPNGLDYQVVQKYLFQIINGIGFCHSHNIIHRDIKPENILVSQSGVVKLCDFGFARTLAAPGEVYTDYVATRWYRAPELLVGDVKYGKAVDVWAIGCLVTEMFMGEPLFPGDSDIDQLYHIMMCLGNLIPRHQELFNKNPVFAGVRLPEIKEREPLERRYPKLSEVVIDLAKKCLHIDPDKRPFCAELLHHDFFQMDGFAERFSQELQLKVQKDARNVSLSKKSQNRKKEKEKDDSLVEERKTLVVQDTNADPKIKDYKLFKIKGSKIDGEKAEKGNRASNASCLHDSRTSHNKIVPSTSLKDCSNVSVDHTRNPSVAIPPLTHNLSAVAPSINSGMGTETIPIQGYRVDEKTKKCSIPFVKPNRHSPSGIYNINVTTLVSGPPLSDDSGADLPQMEHQH
In the case of B2, the “phospho-Ser222 EB2” value is reported as “pS222 EB2 is specifically increased in the neurons that express these kinases”.

B3: mouse CDKL5 (endogenous) (protein)
chain: MKIPNIGNVMNKFEILGVVGEGAYGVVLKCRHKETHEIVAIKKFKDSEENEEVKETTLRELKMLRTLKQENIVELKEAFRRRGKLYLVFEYVEKNMLELLEEMPNGVPPEKVKSYIYQLIKAIHWCHKNDIVHRDIKPENLLISHNDVLKLCDFGFARNLSEGNNANYTEYVATRWYRSPELLLGAPYGKSVDMWSVGCILGELSDGQPLFPGESEIDQLFTIQKVLGPLPSEQMKLFYSNPRFHGLRFPAVNHPQSLERRYLGILNSVLLDLMKNLLKLDPADRYLTEQCLNHPTFQTQRLLDRSPSRSTKRKPYHVESSTLSNRNQSTKGAALQTHHRSNSKDIQNLSVGLPRAEEGLPANESFLNGNLAGATLSPMHTKTYQASTQPGSSSKDLTNNNIPHLLSPKEAKSKTEFDFNIDTKPSEGPGTKYLKSSTRSQQNRHSFMESSQSKAGTLQPSEKQSRHSYIDTIPQSSRSPSYRTKAKSHGALSDSKSVSNLSEARAQITETNTSRYFPSSCLDLNSPTSPTPTRHTDTRTLLSPSGRNNRNEGTLDSRRTTTRHSKTMEELKLPEHMDSSHSHSLSAPHESFSYGLGYTSPFSSQQRPHRHSMYVTRDKVRAKGLDGSLSIGQGMAARANSLQLLSPQPGEQLPPEMTVARPSVKESSREGASSFHTRQKSEGGVYHDPHSDDGTAPKENRHLYNDPVPRRVGSFYRVPSPRPDNSFHENNVSTRVSSLPSDSSSGTNHSKRQPGFDPWKSPENISHADQLKEKEKQGFFRSMKKKKKKTQTVPNTDGPDLLTLQKAIHSSSTASSRPKEWRPEKLSDLQTQSQPLKSLRKLLHLSSSTNHPASSDPRFQPLTAQQAKNSFSEIRIHPLSQATGGSSNIRQEPTPKGRPALQLPGSSLLRYNGWKHSRSRSSQPDEVIFLASHEKWKQ
With B3, the “pS222 EB2 in primary cortical cultures of CDKL5 KO against wild type littermates” value is “pS222 EB2 is much lower in CDKL5 KOs”.

B4: CDKL5 (recombinantly expressed) (protein)
chain: MKIPNIGNVMNKFEILGVVGEGAYGVVLKCRHKETHEIVAIKKFKDSEENEEVKETTLRELKMLRTLKQENIVELKEAFRRRGKLYLVFEYVEKNMLELLEEMPNGVPPEKVKSYIYQLIKAIHWCHKNDIVHRDIKPENLLISHNDVLKLCDFGFARNLSEGNNANYTEYVATRWYRSPELLLGAPYGKSVDMWSVGCILGELSDGQPLFPGESEIDQLFTIQKVLGPLPSEQMKLFYSNPRFHGLRFPAVNHPQSLERRYLGILNSVLLDLMKNLLKLDPADRYLTEQCLNHPTFQTQRLLDRSPSRSAKRKPYHVESSTLSNRNQAGKSTALQSHHRSNSKDIQNLSVGLPRADEGLPANESFLNGNLAGASLSPLHTKTYQASSQPGSTSKDLTNNNIPHLLSPKEAKSKTEFDFNIDPKPSEGPGTKYLKSNSRSQQNRHSFMESSQSKAGTLQPNEKQSRHSYIDTIPQSSRSPSYRTKAKSHGALSDSKSVSNLSEARAQIAEPSTSRYFPSSCLDLNSPTSPTPTRHSDTRTLLSPSGRNNRNEGTLDSRRTTTRHSKTMEELKLPEHMDSSHSHSLSAPHESFSYGLGYTSPFSSQQRPHRHSMYVTRDKVRAKGLDGSLSIGQGMAARANSLQLLSPQPGEQLPPEMTVARSSVKETSREGTSSFHTRQKSEGGVYHDPHSDDGTAPKENRHLYNDPVPRRVGSFYRVPSPRPDNSFHENNVSTRVSSLPSESSSGTNHSKRQPAFDPWKSPENISHSEQLKEKEKQGFFRSMKKKKKKSQTVPNSDSPDLLTLQKSIHSASTPSSRPKEWRPEKISDLQTQSQPLKSLRKLLHLSSASNHPASSDPRFQPLTAQQTKNSFSEIRIHPLSQASGGSSNIRQEPAPKGRPALQLPGQMDPGWHVSSVTRSATEGPSYSEQLGAKSGPNGHPYNRTNRSRMPNLNDLKETAL
For B4, the “phospho-Ser222 EB2” value is given as “pS222 EB2 is specifically increased in the neurons that express these kinases”.

B5: mouse CDKL2 (endogenous) (protein)
chain: MEKYENLGLVGEGSYGMVMKCRNKDSGRIVAIKKFLESDDDKMVKKIAMREIKLLKQLRHENLVNLLEVCKKKKRWYLVFEFVDHTILDDLKLFPNGLDYQVVQKYLFQIINGIGFCHSHNIIHRDIKPENILVSQSGVVKLCDFGFARTLAAPGEVYTDYVATRWYRAPELLVGDVKYGKAVDIWAIGCLVIEMLMGQPLFPGESDIDQLHHIMTCLGNLIPRHQELFYKNPVFAGVRLPEVKDAEAEPLESRYPKLPEAVISLAKKCLHIDPDKRPFCADLLRHDFFQMDGFAERFSQELQLKIEKDARNNSLPKKSQNRKKEKDDALGEERKTLVVQDTNADPKIKDSKVFKVKGSKIDVEKMEKGSRASNANCLHDNGTNHKGLASTSLRDCSNVNIDHSRNPGTAIPPLTHNLSAVAPGINAGMGTIPGVQNYRVDEKTKKYCNPFVKPNQPPPAGIYNMNVSTSVSGEKYLLQANKKRKEYPKADVRLPELNYNHLPELRALEGIARNSRLIKKENKCLSESRIPSLAAIDLHVSSVASHQGAGSPLSDDSEADLPRMEHQH
Consider B5, for which the “okadaic acid dependent increase of pEB2/EB2 in CDKL5 KO primary neurons after CDKL2 shRNA knockdown” value is on record as “Both shRNAs caused a reduction of the OA dependent increase of pEB2/EB2”.
